Data as given in patent US20140087995A1 (published 2014).
Numbered stars: 1 amine (or outer) side, 2 acyl side, 3 side chain; on linkers, the order of the positions; unused ones are H or OH. Bridge positions count the residues as written; N and C are the ends. Side chains are listed from the residue outwards. Ends that are not written are not given here. * marks the point of attachment. C20 diacid = O=C(O)CCCCCCCCCCCCCCCCCCC(=O)*; γGlu = O=C(O)[C@H](CCC(=O)[*:2])N[*:1]; AEEA = NCCOCCOCC(=O)O

T1: human calcitonin receptor (human, UniProt P30988 25-474)
T1 construct: whole, on cells; Assay used cell membranes of the transfected BHK cells; also called hCTR; hCT
T1 sequence (looked up): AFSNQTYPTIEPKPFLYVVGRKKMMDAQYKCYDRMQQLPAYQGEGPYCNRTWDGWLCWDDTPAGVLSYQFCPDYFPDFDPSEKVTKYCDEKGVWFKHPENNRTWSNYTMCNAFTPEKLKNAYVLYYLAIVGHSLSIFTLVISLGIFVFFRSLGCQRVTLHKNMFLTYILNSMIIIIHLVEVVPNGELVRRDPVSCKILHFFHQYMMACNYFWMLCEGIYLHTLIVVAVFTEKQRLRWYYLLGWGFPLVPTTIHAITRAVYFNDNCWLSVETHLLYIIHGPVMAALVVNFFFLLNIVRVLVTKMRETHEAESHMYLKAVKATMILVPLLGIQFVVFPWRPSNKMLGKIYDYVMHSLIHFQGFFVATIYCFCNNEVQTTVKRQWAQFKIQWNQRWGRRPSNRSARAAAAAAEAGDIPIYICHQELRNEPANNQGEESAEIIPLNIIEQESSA


target: T1, human calcitonin receptor; assay: SPA radioligand competition (125I-calcitonin), membranes of BHK cells with human calcitonin receptor
How it was run: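 BHK hCTR membranes 35 ng/μL + SPA beads 0.05 mg/well; buffer 50 mM Hepes pH 7.4, 1 mM CaCl2, 5 mM MgCl₂, 0.1% OA, 0.02% Tween20. 120 min, 25° C., shaking. Scintillation count; IC50 by one-site binding competition.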

Row | IC50 [nM] | Binder
1 | 2.17 | K([AEEA-γGlu-C20 diacid])CNTATCATQRLANFLRHSSPNFGAIPPSTNVGPNTY-NH2 (disulfide 2-7; N-terminus assumed; SMILES CC[C@H](C)[C@H](NC(=O)[C@H](C)NC(=O)CNC(=O)[C@H](Cc1ccccc1)NC(=O)[C@H](CC(N)=O)NC(=O)[C@@H]1CCCN1C(=O)[C@H](CO)NC(=O)[C@H](CO)NC(=O)[C@H](Cc1c[nH]cn1)NC(=O)[C@H](CCCNC(=N)N)NC(=O)[C@H](CC(C)C)NC(=O)[C@H](Cc1ccccc1)NC(=O)[C@H](CC(N)=O)NC(=O)[C@H](C)NC(=O)[C@H](CC(C)C)NC(=O)[C@H](CCCNC(=N)N)NC(=O)[C@H](CCC(N)=O)NC(=O)[C@@H](NC(=O)[C@H](C)NC(=O)[C@@H]1CSSC[C@H](NC(=O)[C@@H](N)CCCCNC(=O)COCCOCCNC(=O)CC[C@H](NC(=O)CCCCCCCCCCCCCCCCCCC(=O)O)C(=O)O)C(=O)N[C@@H](CC(N)=O)C(=O)N[C@@H]([C@@H](C)O)C(=O)N[C@@H](C)C(=O)N[C@@H]([C@@H](C)O)C(=O)N1)[C@@H](C)O)C(=O)N1CCC[C@H]1C(=O)N1CCC[C@H]1C(=O)N[C@@H](CO)C(=O)N[C@H](C(=O)N[C@@H](CC(N)=O)C(=O)N[C@H](C(=O)NCC(=O)N1CCC[C@H]1C(=O)N[C@@H](CC(N)=O)C(=O)N[C@H](C(=O)N[C@@H](Cc1ccc(O)cc1)C(N)=O)[C@@H](C)O)C(C)C)[C@@H](C)O, Synthetic analogue; also called compound 55)
2 | 2.09 | K([AEEA-γGlu-C20 diacid])CNTATCATQRLANFLRHSSPNFGAIPSPTNVGPNTY-NH2 (disulfide 2-7; N-terminus assumed; SMILES CC[C@H](C)[C@H](NC(=O)[C@H](C)NC(=O)CNC(=O)[C@H](Cc1ccccc1)NC(=O)[C@H](CC(N)=O)NC(=O)[C@@H]1CCCN1C(=O)[C@H](CO)NC(=O)[C@H](CO)NC(=O)[C@H](Cc1c[nH]cn1)NC(=O)[C@H](CCCNC(=N)N)NC(=O)[C@H](CC(C)C)NC(=O)[C@H](Cc1ccccc1)NC(=O)[C@H](CC(N)=O)NC(=O)[C@H](C)NC(=O)[C@H](CC(C)C)NC(=O)[C@H](CCCNC(=N)N)NC(=O)[C@H](CCC(N)=O)NC(=O)[C@@H](NC(=O)[C@H](C)NC(=O)[C@@H]1CSSC[C@H](NC(=O)[C@@H](N)CCCCNC(=O)COCCOCCNC(=O)CC[C@H](NC(=O)CCCCCCCCCCCCCCCCCCC(=O)O)C(=O)O)C(=O)N[C@@H](CC(N)=O)C(=O)N[C@@H]([C@@H](C)O)C(=O)N[C@@H](C)C(=O)N[C@@H]([C@@H](C)O)C(=O)N1)[C@@H](C)O)C(=O)N1CCC[C@H]1C(=O)N[C@@H](CO)C(=O)N1CCC[C@H]1C(=O)N[C@H](C(=O)N[C@@H](CC(N)=O)C(=O)N[C@H](C(=O)NCC(=O)N1CCC[C@H]1C(=O)N[C@@H](CC(N)=O)C(=O)N[C@H](C(=O)N[C@@H](Cc1ccc(O)cc1)C(N)=O)[C@@H](C)O)C(C)C)[C@@H](C)O, Synthetic analogue; also called compound 56)
3 | 15.3 | K([AEEA-γGlu-C20 diacid])CNTATCATQRLANFLRHSSPNFGAIPSSTPVGSHTY-NH2 (disulfide 2-7; N-terminus assumed; SMILES CC[C@H](C)[C@H](NC(=O)[C@H](C)NC(=O)CNC(=O)[C@H](Cc1ccccc1)NC(=O)[C@H](CC(N)=O)NC(=O)[C@@H]1CCCN1C(=O)[C@H](CO)NC(=O)[C@H](CO)NC(=O)[C@H](Cc1c[nH]cn1)NC(=O)[C@H](CCCNC(=N)N)NC(=O)[C@H](CC(C)C)NC(=O)[C@H](Cc1ccccc1)NC(=O)[C@H](CC(N)=O)NC(=O)[C@H](C)NC(=O)[C@H](CC(C)C)NC(=O)[C@H](CCCNC(=N)N)NC(=O)[C@H](CCC(N)=O)NC(=O)[C@@H](NC(=O)[C@H](C)NC(=O)[C@@H]1CSSC[C@H](NC(=O)[C@@H](N)CCCCNC(=O)COCCOCCNC(=O)CC[C@H](NC(=O)CCCCCCCCCCCCCCCCCCC(=O)O)C(=O)O)C(=O)N[C@@H](CC(N)=O)C(=O)N[C@@H]([C@@H](C)O)C(=O)N[C@@H](C)C(=O)N[C@@H]([C@@H](C)O)C(=O)N1)[C@@H](C)O)C(=O)N1CCC[C@H]1C(=O)N[C@@H](CO)C(=O)N[C@@H](CO)C(=O)N[C@H](C(=O)N1CCC[C@H]1C(=O)N[C@H](C(=O)NCC(=O)N[C@@H](CO)C(=O)N[C@@H](Cc1c[nH]cn1)C(=O)N[C@H](C(=O)N[C@@H](Cc1ccc(O)cc1)C(N)=O)[C@@H](C)O)C(C)C)[C@@H](C)O, Synthetic analogue; also called compound 57)
4 | 9.63 | K([AEEA-γGlu-C20 diacid])CNTATCATQRLANFLRHSSPNFGAIPSSTNVGPHTY-NH2 (disulfide 2-7; N-terminus assumed; SMILES CC[C@H](C)[C@H](NC(=O)[C@H](C)NC(=O)CNC(=O)[C@H](Cc1ccccc1)NC(=O)[C@H](CC(N)=O)NC(=O)[C@@H]1CCCN1C(=O)[C@H](CO)NC(=O)[C@H](CO)NC(=O)[C@H](Cc1c[nH]cn1)NC(=O)[C@H](CCCNC(=N)N)NC(=O)[C@H](CC(C)C)NC(=O)[C@H](Cc1ccccc1)NC(=O)[C@H](CC(N)=O)NC(=O)[C@H](C)NC(=O)[C@H](CC(C)C)NC(=O)[C@H](CCCNC(=N)N)NC(=O)[C@H](CCC(N)=O)NC(=O)[C@@H](NC(=O)[C@H](C)NC(=O)[C@@H]1CSSC[C@H](NC(=O)[C@@H](N)CCCCNC(=O)COCCOCCNC(=O)CC[C@H](NC(=O)CCCCCCCCCCCCCCCCCCC(=O)O)C(=O)O)C(=O)N[C@@H](CC(N)=O)C(=O)N[C@@H]([C@@H](C)O)C(=O)N[C@@H](C)C(=O)N[C@@H]([C@@H](C)O)C(=O)N1)[C@@H](C)O)C(=O)N1CCC[C@H]1C(=O)N[C@@H](CO)C(=O)N[C@@H](CO)C(=O)N[C@H](C(=O)N[C@@H](CC(N)=O)C(=O)N[C@H](C(=O)NCC(=O)N1CCC[C@H]1C(=O)N[C@@H](Cc1c[nH]cn1)C(=O)N[C@H](C(=O)N[C@@H](Cc1ccc(O)cc1)C(N)=O)[C@@H](C)O)C(C)C)[C@@H](C)O, Synthetic analogue; also called compound 58)
5 | 4.38 | K([AEEA-γGlu-C20 diacid])CNTATCATQRLANFLRHSSPNFGAIPSPTPVGSNTY-NH2 (disulfide 2-7; N-terminus assumed; SMILES CC[C@H](C)[C@H](NC(=O)[C@H](C)NC(=O)CNC(=O)[C@H](Cc1ccccc1)NC(=O)[C@H](CC(N)=O)NC(=O)[C@@H]1CCCN1C(=O)[C@H](CO)NC(=O)[C@H](CO)NC(=O)[C@H](Cc1c[nH]cn1)NC(=O)[C@H](CCCNC(=N)N)NC(=O)[C@H](CC(C)C)NC(=O)[C@H](Cc1ccccc1)NC(=O)[C@H](CC(N)=O)NC(=O)[C@H](C)NC(=O)[C@H](CC(C)C)NC(=O)[C@H](CCCNC(=N)N)NC(=O)[C@H](CCC(N)=O)NC(=O)[C@@H](NC(=O)[C@H](C)NC(=O)[C@@H]1CSSC[C@H](NC(=O)[C@@H](N)CCCCNC(=O)COCCOCCNC(=O)CC[C@H](NC(=O)CCCCCCCCCCCCCCCCCCC(=O)O)C(=O)O)C(=O)N[C@@H](CC(N)=O)C(=O)N[C@@H]([C@@H](C)O)C(=O)N[C@@H](C)C(=O)N[C@@H]([C@@H](C)O)C(=O)N1)[C@@H](C)O)C(=O)N1CCC[C@H]1C(=O)N[C@@H](CO)C(=O)N1CCC[C@H]1C(=O)N[C@H](C(=O)N1CCC[C@H]1C(=O)N[C@H](C(=O)NCC(=O)N[C@@H](CO)C(=O)N[C@@H](CC(N)=O)C(=O)N[C@H](C(=O)N[C@@H](Cc1ccc(O)cc1)C(N)=O)[C@@H](C)O)C(C)C)[C@@H](C)O, Synthetic analogue; also called compound 54)
6 | 1.38 | K([AEEA-γGlu-C20 diacid])CNTATCATQRLANFLRHSSPNFGAIPSSTNVGPNTY-NH2 (disulfide 2-7; N-terminus assumed; SMILES CC[C@H](C)[C@H](NC(=O)[C@H](C)NC(=O)CNC(=O)[C@H](Cc1ccccc1)NC(=O)[C@H](CC(N)=O)NC(=O)[C@@H]1CCCN1C(=O)[C@H](CO)NC(=O)[C@H](CO)NC(=O)[C@H](Cc1c[nH]cn1)NC(=O)[C@H](CCCNC(=N)N)NC(=O)[C@H](CC(C)C)NC(=O)[C@H](Cc1ccccc1)NC(=O)[C@H](CC(N)=O)NC(=O)[C@H](C)NC(=O)[C@H](CC(C)C)NC(=O)[C@H](CCCNC(=N)N)NC(=O)[C@H](CCC(N)=O)NC(=O)[C@@H](NC(=O)[C@H](C)NC(=O)[C@@H]1CSSC[C@H](NC(=O)[C@@H](N)CCCCNC(=O)COCCOCCNC(=O)CC[C@H](NC(=O)CCCCCCCCCCCCCCCCCCC(=O)O)C(=O)O)C(=O)N[C@@H](CC(N)=O)C(=O)N[C@@H]([C@@H](C)O)C(=O)N[C@@H](C)C(=O)N[C@@H]([C@@H](C)O)C(=O)N1)[C@@H](C)O)C(=O)N1CCC[C@H]1C(=O)N[C@@H](CO)C(=O)N[C@@H](CO)C(=O)N[C@H](C(=O)N[C@@H](CC(N)=O)C(=O)N[C@H](C(=O)NCC(=O)N1CCC[C@H]1C(=O)N[C@@H](CC(N)=O)C(=O)N[C@H](C(=O)N[C@@H](Cc1ccc(O)cc1)C(N)=O)[C@@H](C)O)C(C)C)[C@@H](C)O, Synthetic analogue; also called compound 50)
